Source: article PMC7392006, “Demethylase-independent function of JMJD2D as a novel antagonist of p53 to promote Liver Cancer initiation and progression”

Target: p53 (recombinant, Active Motif 81091) (Homo sapiens, UniProt P04637 1-393)
Test: EMSA; no JMJD2D; 5 mM Hepes pH 7.6, 100 mM KCl, 5 mM MgCl2, 1.25 mM DTT, 0.05% NP-40, 2.25% glycerol, 1 ug poly(dI.dC); 6% polyacrylamide gel; temperature not stated
Details: protein: commercial; chain copies: 4; label: biotin end label; blunt

p53 (recombinant, Active Motif 81091), sequence (P04637 whole entry): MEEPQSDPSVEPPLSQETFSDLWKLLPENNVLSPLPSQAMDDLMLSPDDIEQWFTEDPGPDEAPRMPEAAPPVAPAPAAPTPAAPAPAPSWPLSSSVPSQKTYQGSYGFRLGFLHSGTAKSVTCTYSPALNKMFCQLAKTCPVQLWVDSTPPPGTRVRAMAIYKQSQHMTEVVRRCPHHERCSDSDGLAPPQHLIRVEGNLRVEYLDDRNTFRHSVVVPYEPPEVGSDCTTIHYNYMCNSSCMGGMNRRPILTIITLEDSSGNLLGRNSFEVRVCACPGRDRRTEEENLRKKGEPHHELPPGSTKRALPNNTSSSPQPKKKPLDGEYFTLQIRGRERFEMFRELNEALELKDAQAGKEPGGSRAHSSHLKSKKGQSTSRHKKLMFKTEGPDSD

| Binder | binding result |
| --- | --- |
| PUMA promoter p53 element (dsDNA) DNA 1: GCGCGCCTGCAAGTCCTGACTTGTCCGCGGCG DNA 2: CGCCGCGGACAAGTCAGGACTTGCAGGCGCGC | binds |
| p21 promoter p53 element (dsDNA) DNA 1: CTGGCCGTCAGGAACATGTCCCAACATGTTGAGCTCT DNA 2: AGAGCTCAACATGTTGGGACATGTTCCTGACGGCCAG | binds |
